Consider two molecules from patent US20200347130A1 (JIANGSU HENGRUI MEDICINE, published 2020).

For assay [1], the target named is T1, Biotinylated CD96 antigen (human, UniProt P40200-2 22-503, limits assumed, biotinylated).
T1 sequence (looked up): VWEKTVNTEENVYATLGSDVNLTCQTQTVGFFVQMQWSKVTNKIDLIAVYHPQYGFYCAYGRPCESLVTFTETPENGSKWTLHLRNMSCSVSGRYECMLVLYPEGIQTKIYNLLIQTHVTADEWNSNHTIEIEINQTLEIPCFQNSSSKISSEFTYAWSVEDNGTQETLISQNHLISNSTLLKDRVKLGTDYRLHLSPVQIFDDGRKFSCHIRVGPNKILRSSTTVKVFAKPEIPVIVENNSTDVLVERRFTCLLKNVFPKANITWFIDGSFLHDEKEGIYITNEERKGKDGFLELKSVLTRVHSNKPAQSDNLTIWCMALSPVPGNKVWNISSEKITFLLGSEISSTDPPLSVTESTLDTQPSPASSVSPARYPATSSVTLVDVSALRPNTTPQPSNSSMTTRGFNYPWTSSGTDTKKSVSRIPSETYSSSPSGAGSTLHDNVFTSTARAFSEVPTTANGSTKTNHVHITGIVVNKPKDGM
Briefly: competition ELISA: antibody B pre-incubated with biotinylated CD96 antigen, added to a plate coated with antibody A, HRP-streptavidin, OD450; competitor: coated h1722-010. The method, then:
Competitive assays of different antibodies binding to CD96 protein were used to classify binding epitopes of the antibodies. The specific experimental methods are as follows:
Antibody A was diluted to a concentration of 2 μg/ml with PBS buffer (Shanghai Yuanpei Biotechnology Co., Ltd. Cat No. B320), pH 7.4, added to a 96-well microtiter plate (Corning, Cat No. CLS3590-100EA) at a volume of 50 μl/well, and coated at 4° C. overnight. After discarding the liquid, 250 μl/well of 5% skim milk (BD skim milk, Cat No. 232100) blocking solution diluted with PBS was added, and the plate was incubated at 37° C. for 3 hours. After blocking, the blocking solution was discarded, and the plate was washed 5 times with PBST buffer (pH 7.4 PBS containing 0.05% tween-20) and stored for later use. Antibody B was diluted to 40 μg/ml and 8 μg/ml with 1% BSA, and Biotinylated CD96 antigen was simultaneously diluted to 4 μg/mL. Subsequently, antibody B and antigen were mixed in a 1:1 volume ratio, pre-incubated at 37° C. for 45 minutes, added into the enzyme plate coated with antibody A, thus incubating the plate in an incubator at 37° C. for 1.5 hours. […] The absorption value was read at 450 nm with a NOVOStar microplate reader, and the OD value was used to determine whether A and B CD96 antibodies compete with each other. […]

The target of assay [2] is T2, Full-length human CD96 on CHO-S cells (human, UniProt P40200 22-585).
T2 construct: also called CD96-CHOs; hCD96-CHOs
T2 sequence: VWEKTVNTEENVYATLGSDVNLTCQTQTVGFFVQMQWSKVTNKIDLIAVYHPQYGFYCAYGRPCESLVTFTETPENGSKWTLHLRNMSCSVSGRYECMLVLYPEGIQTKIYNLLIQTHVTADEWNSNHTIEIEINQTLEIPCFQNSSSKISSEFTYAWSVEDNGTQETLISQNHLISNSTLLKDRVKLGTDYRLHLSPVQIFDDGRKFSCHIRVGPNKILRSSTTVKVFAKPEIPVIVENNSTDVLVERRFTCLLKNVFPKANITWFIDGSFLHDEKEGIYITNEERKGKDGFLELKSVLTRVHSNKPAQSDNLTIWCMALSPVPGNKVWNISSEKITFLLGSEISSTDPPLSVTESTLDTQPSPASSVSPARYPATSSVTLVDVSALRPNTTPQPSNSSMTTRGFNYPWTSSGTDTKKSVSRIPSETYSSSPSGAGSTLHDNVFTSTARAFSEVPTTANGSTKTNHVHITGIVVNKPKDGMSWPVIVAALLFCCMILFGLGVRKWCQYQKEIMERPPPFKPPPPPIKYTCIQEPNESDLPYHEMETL
Briefly: cell ELISA on fixed CHO-S cells overexpressing human CD96, HRP anti-human secondary antibody, OD450. The protocol:
The binding capacity of the anti-CD96 antibody was tested by binding experiments of the antibody to human CD96 protein overexpressing CHO-S cells. The full-length CD96 plasmid was transfected into CHO-S cells by electrotransfection, and cells were then screened for two weeks under pressure for the detection of the expression of CD96. After the over-expressing cells were fixed at the bottom of the 96-well plate, the density of the signal after adding the antibody was used to judge the binding activity of the antibody to CD96 overexpressing CHO-S cells. The specific experimental method is as follows:
The cells were seeded at a density of 9×10⁴/100 μL/well in a 96-well plate and cultured overnight. After aspirating the supernatant, the plate was washed once with PBS, subsequently, 100 μl/well immunostaining fixation solution (Biyuntian, P0098) was added and fixed for one hour at room temperature, and the plate was washed three times with PBS. Once the liquid was discarded, 250 μl/well of 5% skim milk (BD, 232100) blocking solution diluted with PBS was added, and the plate was blocked in an incubator at 37° C. for 2.5 hours. […] The absorption value was read at 450 nm with a NOVOStar microplate reader, and the EC50 value of the CD96 antibodies to CD96 overexpressing CHO-S cells was calculated (see FIG. 1 and Table 15).
On the technique in general: In an ELISA, binding on a coated surface is turned into a signal by an enzyme label.

B1: h1722-010 (antibody, V domains shown)
VH: EVQLVQSGAEVKKPGSSVKVSCKASGGTFSDYWMHWVRQAPGQGLEWIGMLHPNSGTTSFNEKFKIRVTITADKSTSTAYMELSSLRSEDTAVYYCASDYSGPFAYWGQGTLVTVSS
VL: DIQLTQSPSSLSASVGDRVTITCSASSSVNYIHWYQQKPGKAPKRWIFDTSKLASGVPSRFSGSGSGTDYTLTISSLQPEDFATYYCQQWRSNPLTFGQGTKLEIK
notes: Only variable regions are tied to this name; also called M722-010
Turning to B1, in assay [1], the “IC50 (read off the curve)” value was around 0.5 nM.

B2: h1719-010 (antibody, V domains shown)
VH: EVTLKESGPVLVKPTETLTLTCTVSGFSLSSYGVSWVRQPPGKGLEWLGVIWGDGNTNYHSVLISRLTISKDTSKSQVVLTLTNMDPVDTATYYCAKQNYYGSRYGYPIDYWGQGTTVTVSS
VL: DIQMTQSPSSVSASVGDRVTITCKATQDVGTAVAWYQQKPGKAPKLLIYWASTRHTGVPSRFSGSGSGTDFTLTISSLQPEDFATYYCQQYGSSVLTFGGGTKVEIK
notes: Only variable regions are tied to this name
The EC50 (read off the curve) is the concentration needed to bring the measured effect to its halfway point. A lower EC50 (read off the curve) goes with greater potency. For B2, the “EC50 (read off the curve)” value in assay [2] is around 0.05 nM.
